Positions count from the first letter of the chain named.
T1: GFP-9S library array, motif 4 ND N98L;D124S (synthetic construct, N98L;D124S)
T1 chain: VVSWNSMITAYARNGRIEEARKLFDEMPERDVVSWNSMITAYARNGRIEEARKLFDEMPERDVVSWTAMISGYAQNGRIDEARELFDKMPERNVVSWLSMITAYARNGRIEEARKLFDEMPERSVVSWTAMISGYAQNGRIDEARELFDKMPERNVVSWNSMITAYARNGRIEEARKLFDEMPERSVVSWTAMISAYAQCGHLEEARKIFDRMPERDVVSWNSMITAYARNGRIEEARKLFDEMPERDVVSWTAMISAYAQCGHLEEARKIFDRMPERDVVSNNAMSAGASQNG

T2: GFP-9S library array, motif 4 ND N98A;D124Y (synthetic construct, N98A;D124Y)
T2 chain: T1 chain with L98A, S124Y

T3: GFP-9S library array, motif 4 ND N98M;D124E (synthetic construct, N98M;D124E)
T3 chain: T1 chain with L98M, S124E

T4: GFP-9S library array, motif 4 ND N98G;D124S (synthetic construct, N98G;D124S)
T4 chain: T1 chain with L98G

T5: GFP-9S library array, motif 4 ND N98F;D124L (synthetic construct, N98F;D124L)
T5 chain: T1 chain with L98F, S124L

B1: Cy5-rpoA (ssRNA)
RNA: AUUACACGUGA
B2: IR-rpoA-U (ssRNA)
RNA: AUUAUACGUGA
B3: Cy5-rpoA-G (ssRNA)
RNA: AUUAGACGUGA
B4: IR-rpoA-A (ssRNA)
RNA: AUUAAACGUGA

How the values were obtained:
Test in all cases: high-throughput RNA pulldown from lysate on Ni-NTA beads; HRP: 50 mM Tris pH 8, 150 mM NaCl, 1 mM beta-mercaptoethanol, 50 ug/ml BSA, 3 ug/ml yeast RNA, 0.5% heparin; ITC and FP: Tris pH 8, 200 mM KCl, 5% glycerol; MST: 50 mM Tris pH 8, 200 mM NaCl, 1 mM DTT, BSA, heparin, 0.05% Tween 20
Settings in all cases: tags: N-terminal His-eGFP
[1] = target: T1, GFP-9S library array, motif 4 ND …
[2] = target: T2, GFP-9S library array, motif 4 ND …
[3] = target: T3, GFP-9S library array, motif 4 ND …
[4] = target: T4, GFP-9S library array, motif 4 ND …
[5] = target: T5, GFP-9S library array, motif 4 ND …

| Binder | Kd ([1]; label: 5' Cy5) [nM] | Kd ([2]; label: 5' Cy5) [nM] | Kd ([3]; label: 5' Cy5) [nM] | Kd ([4]; label: 5' Cy5) [nM] | Kd ([5]; label: 5' Cy5) [nM] | Kd ([1]; label: 5' IRDye 800CW) [nM] | Kd ([2]; label: 5' IRDye 800CW) [nM] | Kd ([3]; label: 5' IRDye 800CW) [nM] | Kd ([4]; label: 5' IRDye 800CW) [nM] | Kd ([5]; label: 5' IRDye 800CW) [nM] |
| --- | --- | --- | --- | --- | --- | --- | --- | --- | --- | --- |
| B1 | 139 | 82.5 | 117 | 629 | 76.3 |  |  |  |  |  |
| B2 |  |  |  |  |  | 37.2 | 175 | 158 | 749 | 166 |
| B3 | 111 | 68.5 | 89 | 549 | 90.2 |  |  |  |  |  |
| B4 |  |  |  |  |  | 120 | 172 | 264 | 564 | 232 |

Reference: publication PMC8809517, “Cofactor-independent RNA editing by a synthetic S-type PPR protein”
